Where two headings read alike, the source gives them in different places.
Assays:
NCI60 tumour cell lines = experiment: NCI60 in vitro screening, one dose, whole panel; assay type: cell-based; details: mean over all cell lines
NCI-H23 = assay type: cell-based
SF-539 = experiment: NCI60 in vitro screening, CNS Cancer; assay type: cell-based
NCI-H460 = assay type: cell-based
HCT-116 = experiment: NCI60 in vitro screening, Colon Cancer; assay type: cell-based
RXF 393 = experiment: NCI60 in vitro screening, Renal Cancer; assay type: cell-based
LOX IMVI = experiment: NCI60 in vitro screening, Melanoma; assay type: cell-based; details: one dose
RPMI-8226 = experiment: NCI60 in vitro screening, Leukemia; assay type: cell-based
MCF7 = experiment: NCI60 in vitro screening, Breast Cancer; assay type: cell-based
NCI/ADR-RES = experiment: NCI60 in vitro screening, Ovarian Cancer; assay type: cell-based
HOP-62 = assay type: cell-based
UACC-257 = experiment: NCI60 in vitro screening, Melanoma; assay type: cell-based
KM12 = experiment: NCI60 in vitro screening, Colon Cancer; assay type: cell-based
A498 = experiment: NCI60 in vitro screening, Renal Cancer; assay type: cell-based
CCRF-CEM = experiment: NCI60 in vitro screening, Leukemia; assay type: cell-based
A549/ATCC = assay type: cell-based

B1: GMI: immunomodulatory protein from Ganoderma microsporum, amino acid sequence SEQ ID NO: 3, manufactured by Mycomagic Biotechnology Co., Ltd. (protein, listed as Ganoderma microsporum)
chain: MSDTALIFTLAWNVKQLAFDYTPNWGRGRPSSFIDTVTFPTVLTDKAYTYRVVVSGKDLGVRPSYAVESDGSQKINFLEYNSGYGIADTNTIQVYVIDPDTGNNFIVAQWN
LC50 (BT-549): 7.24E1 | TGI (BT-549; BT-549): 2.27E1 | Percent Growth (BT-549; BT-549, Log10 Concentration 0.1): 100% | Percent Growth (BT-549; BT-549, Log10 Concentration 1.1): 26% | Percent Growth (BT-549; BT-549, Log10 Concentration 2.1): −74% | Percent Growth (BT-549; BT-549, Log10 Concentration −0.9): 98% | Percent Growth (BT-549; BT-549, Log10 Concentration −1.9): 104% | Growth Percent (BT-549; BT-549, one dose): −74.30% | GI50 (BT-549; BT-549, in µg/mL): 5.89E0 | Growth Percent, Mean (NCI60 tumour cell lines): 64.66% | TGI (NCI-H23; NCI-H23): >1.25E2 | Percent Growth (NCI-H23; NCI-H23, Log10 Concentration 0.1): 106% | Percent Growth (NCI-H23; NCI-H23, Log10 Concentration 1.1): 89% | Percent Growth (NCI-H23; NCI-H23, Log10 Concentration 2.1): 66% | Percent Growth (NCI-H23; NCI-H23, Log10 Concentration −0.9): 101% | Percent Growth (NCI-H23; NCI-H23, Log10 Concentration −1.9): 99% | Growth Percent (NCI-H23; NCI-H23, one dose): 91.82% | TGI (SF-539; SF-539): 6.02E1 | Percent Growth (SF-539; SF-539, Log10 Concentration 0.1): 102% | Percent Growth (SF-539; SF-539, Log10 Concentration 1.1): 80% | Percent Growth (SF-539; SF-539, Log10 Concentration 2.1): −37% | Percent Growth (SF-539; SF-539, Log10 Concentration −0.9): 111% | Percent Growth (SF-539; SF-539, Log10 Concentration −1.9): 108% | Growth Percent (SF-539; SF-539, one dose): 48.19% | GI50 (SF-539; SF-539, in µg/mL): 2.26E1 | TGI (NCI-H460; NCI-H460): >1.25E2 | Percent Growth (NCI-H460; NCI-H460, Log10 Concentration 0.1): 100% | Percent Growth (NCI-H460; NCI-H460, Log10 Concentration 1.1): 91% | Percent Growth (NCI-H460; NCI-H460, Log10 Concentration 2.1): 33% | Percent Growth (NCI-H460; NCI-H460, Log10 Concentration −0.9): 104% | Percent Growth (NCI-H460; NCI-H460, Log10 Concentration −1.9): 103% | Growth Percent (NCI-H460; NCI-H460, one dose): 86.38% | GI50 (NCI-H460; NCI-H460, in µg/mL): 6.47E1 | TGI (HCT-116; HCT-116): >1.25E2 | Percent Growth (HCT-116; HCT-116, Log10 Concentration 0.1): 101% | Percent Growth (HCT-116; HCT-116, Log10 Concentration 1.1): 103% | Percent Growth (HCT-116; HCT-116, Log10 Concentration 2.1): 104% | Percent Growth (HCT-116; HCT-116, Log10 Concentration −0.9): 105% | Percent Growth (HCT-116; HCT-116, Log10 Concentration −1.9): 98% | Growth Percent (HCT-116; HCT-116, one dose): 101.77% | TGI (RXF 393; RXF 393): 4.72E1 | Percent Growth (RXF 393; RXF 393, Log10 Concentration 0.1): 101% | Percent Growth (RXF 393; RXF 393, Log10 Concentration 1.1): 76% | Percent Growth (RXF 393; RXF 393, Log10 Concentration 2.1): −56% | Percent Growth (RXF 393; RXF 393, Log10 Concentration −0.9): 101% | Percent Growth (RXF 393; RXF 393, Log10 Concentration −1.9): 101% | Growth Percent (RXF 393; RXF 393, one dose): 38.93% | GI50 (RXF 393; RXF 393, in µg/mL): 1.97E1 | LC50 (RXF 393; RXF 393, in µg/mL): 1.13E2 | Growth Percent (LOX IMVI): 67.70% | TGI (RPMI-8226; RPMI-8226): >1.25E2 | Percent Growth (RPMI-8226; RPMI-8226, Log10 Concentration 0.1): 105% | Percent Growth (RPMI-8226; RPMI-8226, Log10 Concentration 1.1): 100% | Percent Growth (RPMI-8226; RPMI-8226, Log10 Concentration 2.1): 72% | Percent Growth (RPMI-8226; RPMI-8226, Log10 Concentration −0.9): 102% | Percent Growth (RPMI-8226; RPMI-8226, Log10 Concentration −1.9): 105% | Growth Percent (RPMI-8226; RPMI-8226, one dose): 96.01% | TGI (MCF7; MCF7): >1.25E2 | Percent Growth (MCF7; MCF7, Log10 Concentration 0.1): 93% | Percent Growth (MCF7; MCF7, Log10 Concentration 1.1): 49% | Percent Growth (MCF7; MCF7, Log10 Concentration 2.1): 23% | Percent Growth (MCF7; MCF7, Log10 Concentration −0.9): 104% | Percent Growth (MCF7; MCF7, Log10 Concentration −1.9): 100% | Growth Percent (MCF7; MCF7, one dose): 42.68% | GI50 (MCF7; MCF7, in µg/mL): 1.15E1 | TGI (NCI/ADR-RES): >1.25E2 | Percent Growth (NCI/ADR-RES; Log10 Concentration 0.1): 105% | Percent Growth (NCI/ADR-RES; Log10 Concentration 1.1): 81% | Percent Growth (NCI/ADR-RES; Log10 Concentration 2.1): 19% | Percent Growth (NCI/ADR-RES; Log10 Concentration −0.9): 100% | Percent Growth (NCI/ADR-RES; Log10 Concentration −1.9): 102% | GI50 (NCI/ADR-RES; in µg/mL): 3.94E1 | TGI (HOP-62; HOP-62): 5.99E1 | Percent Growth (HOP-62; HOP-62, Log10 Concentration 0.1): 102% | Percent Growth (HOP-62; HOP-62, Log10 Concentration 1.1): 73% | Percent Growth (HOP-62; HOP-62, Log10 Concentration 2.1): −34% | Percent Growth (HOP-62; HOP-62, Log10 Concentration −0.9): 102% | Percent Growth (HOP-62; HOP-62, Log10 Concentration −1.9): 104% | Growth Percent (HOP-62; HOP-62, one dose): 53.89% | GI50 (HOP-62; HOP-62, in µg/mL): 2.03E1 | TGI (UACC-257; UACC-257): >1.25E2 | Percent Growth (UACC-257; UACC-257, Log10 Concentration 0.1): 98% | Percent Growth (UACC-257; UACC-257, Log10 Concentration 1.1): 37% | Percent Growth (UACC-257; UACC-257, Log10 Concentration 2.1): 52% | Percent Growth (UACC-257; UACC-257, Log10 Concentration −0.9): 99% | Percent Growth (UACC-257; UACC-257, Log10 Concentration −1.9): 103% | Growth Percent (UACC-257; UACC-257, one dose): 89.25% | TGI (KM12; KM12): >1.25E2 | Percent Growth (KM12; KM12, Log10 Concentration 0.1): 104% | Percent Growth (KM12; KM12, Log10 Concentration 1.1): 89% | Percent Growth (KM12; KM12, Log10 Concentration 2.1): 43% | Percent Growth (KM12; KM12, Log10 Concentration −0.9): 96% | Percent Growth (KM12; KM12, Log10 Concentration −1.9): 100% | Growth Percent (KM12; KM12, one dose): 62.96% | GI50 (KM12; KM12, in µg/mL): 8.92E1 | TGI (A498; A498): 7.07E1 | Percent Growth (A498; A498, Log10 Concentration 0.1): 114% | Percent Growth (A498; A498, Log10 Concentration 1.1): 108% | Percent Growth (A498; A498, Log10 Concentration 2.1): −35% | Percent Growth (A498; A498, Log10 Concentration −0.9): 102% | Percent Growth (A498; A498, Log10 Concentration −1.9): 107% | Growth Percent (A498; A498, one dose): 98.16% | GI50 (A498; A498, in µg/mL): 3.17E1 | TGI (CCRF-CEM): >1.25E2 | Percent Growth (CCRF-CEM; Log10 Concentration 0.1): 97% | Percent Growth (CCRF-CEM; Log10 Concentration 1.1): 58% | Percent Growth (CCRF-CEM; Log10 Concentration 2.1): 18% | Percent Growth (CCRF-CEM; Log10 Concentration −0.9): 101% | Percent Growth (CCRF-CEM; Log10 Concentration −1.9): 104% | GI50 (CCRF-CEM; in µg/mL): 2.02E1 | TGI (A549/ATCC): >1.25E2 | Percent Growth (A549/ATCC; Log10 Concentration 0.1): 94% | Percent Growth (A549/ATCC; Log10 Concentration 1.1): 51% | Percent Growth (A549/ATCC; Log10 Concentration 2.1): 8% | Percent Growth (A549/ATCC; Log10 Concentration −0.9): 99% | Percent Growth (A549/ATCC; Log10 Concentration −1.9): 102% | GI50 (A549/ATCC; in µg/mL): 1.31E1 | Growth Percent (A549/ATCC; one dose): 44.29%

From patent publication US9018171B2, “Uses of an immunomodulatory protein (GMI) from Ganoderma microsporum” (Mycomagic Biotechnology Co., Ltd., priority 2010, dated 2015)
